Results: patent US20230134571A1 (INTERNATIONAL AIDS VACCINE INITIATIVE, published 2023)

What was measured:
Test in all cases: cell-based or functional assay
[1] = molecular target: HIV Env, isolate 6811.v7.c18 (HIV)
[2] = molecular target: HIV Env, isolate ZM109F.PB4 (HIV)
[3] = molecular target: HIV Env, isolate ZM53M.PB12 (HIV)
[4] = molecular target: HIV Env, isolate X1254_C3 (HIV)
[5] = molecular target: HIV Env, isolate CNE17 (HIV)
[6] = molecular target: HIV Env, isolate Ce2060_G9 (HIV)
[7] = molecular target: HIV Env, isolate Ce0393_C3 (HIV)
[8] = molecular target: HIV Env, isolate AC10.0.29 (HIV)
[9] = molecular target: HIV Env, isolate 541-F1_A7_2 (HIV)
[10] = molecular target: HIV Env, isolate 722_G4_16 (HIV)
[11] = molecular target: HIV Env, isolate CA392_H2_6 (HIV)
[12] = molecular target: HIV Env, isolate 20417927.07 (HIV)
[13] = molecular target: HIV Env, isolate Ce1172_H1 (HIV)
[14] = molecular target: HIV Env, isolate 0041.v3.c18 (HIV)
[15] = molecular target: HIV Env, isolate TRP290.2.00_23_6 (HIV)
[16] = molecular target: HIV Env, isolate CAP244.2.00.D3 (HIV)
[17] = molecular target: HIV Env, isolate 21561324_D3_B5 (HIV)
[18] = molecular target: HIV Env, isolate 20927783 (HIV)
[19] = molecular target: HIV Env, isolate 20915593 (HIV)
[20] = molecular target: HIV Env, isolate 3312_D6.2 (HIV)
[21] = molecular target: HIV Env, isolate CT810_G4-7 (HIV)
[22] = molecular target: HIV Env, isolate TRP307.2.00_24_1 (HIV)
[23] = molecular target: HIV Env, isolate 235080_3G7env2(Rev-) (HIV)
[24] = molecular target: HIV Env, isolate ZM249M.PL1 (HIV)
[25] = molecular target: HIV Env, isolate 19252094_A5_G2 (HIV)
[26] = molecular target: HIV Env, isolate ZM215F.PB8 (HIV)
[27] = molecular target: HIV Env, isolate CH064.env (HIV)
[28] = molecular target: HIV Env, isolate 6040.v4.c15 (HIV)

B1: ePGDM9 (antibody, V domains shown)
VH: QAQLVQSGPEVRKPGTSVKVSCKNPGNTLTTYDLHWVRQVPGQGLQWMGWISHEGDKKVIVERFKAKVTIDWDRSTNTAYLQLSGLTSEDTAVYYCAKGSKHRLRDYALYDEDGALNWAVDVDYLANLEFWGQGTAVTVSS
VL: DIVLTQSPLSLSVTPGESASISCKSSQSLIHGDRNNYLAWYVQKPGRSPQLLIDLASERASGVPDRFSGSGSRKDFTLKISRVETEDVGTYYCMQGRESPWTFGQGTKVDIK
[1]
  IC80 (µg/ml) with constrains: > 100 µg/mL
[2]
  IC80 (µg/ml) with constrains: 0.106 µg/mL
[3]
  IC80 (µg/ml) with constrains: 0.026 µg/mL
[4]
  IC80 (µg/ml) with constrains: 0.71 µg/mL
[5]
  IC80 (µg/ml) with constrains: 0.01 µg/mL
[6]
  IC80 (µg/ml) with constrains: 0.538 µg/mL
[7]
  IC80 (µg/ml) with constrains: 0.017 µg/mL
[8]
  IC80 (µg/ml) with constrains: 0.298 µg/mL
[9]
  IC50: 0.005 µg/mL
  IC80: 0.02 µg/mL
[10]
  IC50: 0.198 µg/mL
  IC80: 0.585 µg/mL
[11]
  IC50: 0.032 µg/mL
  IC80: 0.129 µg/mL
[12]
  IC50: 0.03 µg/mL
  IC80: 0.679 µg/mL
[13]
  IC50: 0.007 µg/mL
  IC80: 0.02 µg/mL
[14]
  IC50: < 0.0006 µg/mL
  IC80: 0.001 µg/mL
[15]
  IC50: 0.012 µg/mL
  IC80: 0.06 µg/mL
[16]
  IC50: 2.87 µg/mL
  IC80: 19.9 µg/mL
[17]
  IC50: 0.004 µg/mL
  IC80: 0.038 µg/mL
[18]
  IC50: 0.005 µg/mL
  IC80: 0.017 µg/mL
[19]
  IC50: 0.004 µg/mL
  IC80: 0.015 µg/mL
[20]
  IC50: 0.004 µg/mL
  IC80: 0.011 µg/mL
[21]
  IC50: 0.087 µg/mL
  IC80: 5.53 µg/mL
[22]
  IC50: > 50 µg/mL
  IC80: > 50 µg/mL
[23]
  IC50: 0.002 µg/mL
  IC80: 0.005 µg/mL
[24]
  IC50: 0.004 µg/mL
  IC80: 0.05 µg/mL
[25]
  IC50: 0.001 µg/mL
  IC80: 0.003 µg/mL
[26]
  IC50: < 0.0006 µg/mL
  IC80: 0.007 µg/mL
[27]
  IC50: 0.333 µg/mL
  IC80: 1.62 µg/mL
[28]
  IC50: < 0.0006 µg/mL
  IC80: 0.003 µg/mL
